From US20060240044A1 come the findings set out here.

This assay addresses human Vβ1.1 TcR (human). Nature of the assay: cell-based or functional assay.

recombinant SPE-L: the Percentage of Vβ enrichment (Vβ 1.1) came out at 8.44%; the Vβ cDNA clones from toxin stimulated T cells identified as Vβ1.1 was 5 of 5 cDNAs; the stimulation of T cells carrying the Vβ1.1 TcR, against ConA (further results) is above 80 times; the stimulation of T cells carrying the Vβ1.1 TcR, against ConA (initial results) was above 50 times.
The matching figures for recombinant SPE-M: 6.75%, 4 of 5 cDNAs, 70 times and above 60 times.
